Measurements published in paper PMC5493969.

Target: MBP + FGFR2 31-406 (ECD + TM) (human) (UniProt P21802)
Assay: SEC; main elution fraction (1.5 M NaCl, 0.1% DDM) of a heparin affinity column loaded first with FGF1 and then with refolded MBP-FGFR2 ECD + TM, run on size exclusion chromatography; peaks analysed by SDS-PAGE and western blot (anti-MBP, anti-His-tag)

MBP + FGFR2 31-406 (ECD + TM) (from UniProt P21802 31-406) (domain or fragment)
stoichiometry N: 2
